Six molecules from US20210388110A1 (published 2021) can be followed below.

For this experiment, the target named is T1, soluble human CD3ε chain (human, UniProt P07766 23-126, limits assumed).
T1 construct: the text says soluble human CD3ε chain; also called human CD3 epsilon chain
As to the kind of experiment: SPR (Biacore). On the technique in general: In SPR one partner is held on a chip, and binding of the other changes the refractive index at the surface.

T1 sequence (P07766 23-126 limits assumed): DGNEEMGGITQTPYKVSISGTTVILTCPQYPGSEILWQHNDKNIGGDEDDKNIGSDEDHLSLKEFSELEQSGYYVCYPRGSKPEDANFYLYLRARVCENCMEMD

B1: TR01H081-E22Hh/none-Hi-Kn010G3/L0011-k0 (antibody, human IgG1, kappa, L234A L235A, N297A)
heavy: QVQLVESGGGLVQPGRSLRLSCAASGFTFSNAWMHWVRQAPGKGLEWVAQIKDKSQNYATYYAESVKGRFTISRADSKNSIYLQMNSLKTEDTAVYYCRYVHYAAGYGVDIWGQGTTVTVSSASTKGPSVFPLAPSSKSTSGGTAALGCLVKDYFPEPVTVSWNSGALTSGVHTFPAVLQSSGLYSLSSVVTVPSSSLGTQTYICNVNHKPSNTKVDKKVEPKSCDKTHTCPPCPAPEAAGGPSVFLFPPKPKDTLMISRTPEVTCVVVDVSHEDPEVKFNWYVDGVEVHNAKTKPREEQYASTYRVVSVLTVLHQDWLNGKEYKCKVSNKALPAPIEKTISKAKGQPREPQVYTLPPSRCELTKNQVSLSCAVKGFYPSDIAVEWESNGQPENNYKTTPPVLDSDGSFFLVSKLTVDKSRWQQGNVFSCSVMHEALHNHYTQKSLSLSPDYKDDDDK
chain: EPKSSDKTHTCPPCPAPELLGGPSVFLFPPKPKDTLMISRTPEVTCVVVDVSHEDPEVKFNWYVDGVEVHNAKTKPREEQYNSTYRVVSVLTVLHQDWLNGKEYKCKVSNKALPAPIEKTISKAKGQPREPQVCTLPPSRDELTKNQVSLWCLVKGFYPSDIAVEWESNGQPENNYKTTPPVLDSDGSFFLYSKLTVDKSRWQQGNVFSCSVMHEALHNRYTQKSLSLSP
light: DIVMTQSPLSLPVTPGEPASISCRSSQPLVHSNRNTYLHWYQQKPGQAPRLLIYKVSNRFSGVPDRFSGSGSGTDFTLKISRVEAEDVGVYYCGQGTQVPYTFGQGTKLEIKRTVAAPSVFIFPPSDEQLKSGTASVVCLLNNFYPREAKVQWKVDNALQSGNSQESVTEQDSKDSTYSLSSTLTLSKADYEKHKVYACEVTHQGLSSPVTKSFNRGEC
notes: single-arm
Take B1: the Kd is 13.5 nM.

B2: TR01H081-E22Hh/none-Hi-Kn010G3/L0262-k0 (antibody, human IgG1, kappa, L234A L235A, N297A)
heavy: QVQLVESGGGLVQPGRSLRLSCAASGFTFSNAWMHWVRQAPGKGLEWVAQIKDKSQNYATYYAESVKGRFTISRADSKNSIYLQMNSLKTEDTAVYYCRYVHYAAGYGVDIWGQGTTVTVSSASTKGPSVFPLAPSSKSTSGGTAALGCLVKDYFPEPVTVSWNSGALTSGVHTFPAVLQSSGLYSLSSVVTVPSSSLGTQTYICNVNHKPSNTKVDKKVEPKSCDKTHTCPPCPAPEAAGGPSVFLFPPKPKDTLMISRTPEVTCVVVDVSHEDPEVKFNWYVDGVEVHNAKTKPREEQYASTYRVVSVLTVLHQDWLNGKEYKCKVSNKALPAPIEKTISKAKGQPREPQVYTLPPSRCELTKNQVSLSCAVKGFYPSDIAVEWESNGQPENNYKTTPPVLDSDGSFFLVSKLTVDKSRWQQGNVFSCSVMHEALHNHYTQKSLSLSPDYKDDDDK
chain: EPKSSDKTHTCPPCPAPELLGGPSVFLFPPKPKDTLMISRTPEVTCVVVDVSHEDPEVKFNWYVDGVEVHNAKTKPREEQYNSTYRVVSVLTVLHQDWLNGKEYKCKVSNKALPAPIEKTISKAKGQPREPQVCTLPPSRDELTKNQVSLWCLVKGFYPSDIAVEWESNGQPENNYKTTPPVLDSDGSFFLYSKLTVDKSRWQQGNVFSCSVMHEALHNRYTQKSLSLSP
light: DIVMTQSPLSLPVTPGEPASISCRSSQPPVHSNRNTYLHWYQQKPGQAPRLLIYKVSNRFSGVPDRFSGSGSGTDFTLKISRVEAEDVGVYYCAQGTQVPYTFGQGTKLEIKRTVAAPSVFIFPPSDEQLKSGTASVVCLLNNFYPREAKVQWKVDNALQSGNSQESVTEQDSKDSTYSLSSTLTLSKADYEKHKVYACEVTHQGLSSPVTKSFNRGEC
notes: single-arm
B2 yielded a dissociation constant Kd of 5.76 nM.

B3: TR01H082-E22Hh/none-Hi-Kn010G3/L0000-k0 (antibody, human IgG1, kappa, L234A L235A, N297A)
heavy: QVQLVESGGGLVQPGRSLRLSCAASGFTFSNAWMHWVRQAPGKGLEWVAQIKDKSQNYATYYAESVKGRFTISRDDSKNSLYLQMNSLKTEDTAVYYCRYVHYAAGYGVDAWGQGTTVTVSSASTKGPSVFPLAPSSKSTSGGTAALGCLVKDYFPEPVTVSWNSGALTSGVHTFPAVLQSSGLYSLSSVVTVPSSSLGTQTYICNVNHKPSNTKVDKKVEPKSCDKTHTCPPCPAPEAAGGPSVFLFPPKPKDTLMISRTPEVTCVVVDVSHEDPEVKFNWYVDGVEVHNAKTKPREEQYASTYRVVSVLTVLHQDWLNGKEYKCKVSNKALPAPIEKTISKAKGQPREPQVYTLPPSRCELTKNQVSLSCAVKGFYPSDIAVEWESNGQPENNYKTTPPVLDSDGSFFLVSKLTVDKSRWQQGNVFSCSVMHEALHNHYTQKSLSLSPDYKDDDDK
chain: EPKSSDKTHTCPPCPAPELLGGPSVFLFPPKPKDTLMISRTPEVTCVVVDVSHEDPEVKFNWYVDGVEVHNAKTKPREEQYNSTYRVVSVLTVLHQDWLNGKEYKCKVSNKALPAPIEKTISKAKGQPREPQVCTLPPSRDELTKNQVSLWCLVKGFYPSDIAVEWESNGQPENNYKTTPPVLDSDGSFFLYSKLTVDKSRWQQGNVFSCSVMHEALHNRYTQKSLSLSP
light: DIVMTQSPLSLPVTPGEPASISCRSSQSLVHSNRNTYLHWYQQKPGQAPRLLIYKVSNRFSGVPDRFSGSGSGTDFTLKISRVEAEDVGVYYCGQGTQVPYTFGQGTKLEIKRTVAAPSVFIFPPSDEQLKSGTASVVCLLNNFYPREAKVQWKVDNALQSGNSQESVTEQDSKDSTYSLSSTLTLSKADYEKHKVYACEVTHQGLSSPVTKSFNRGEC
notes: single-arm
Regarding B3, the Kd came out at 73.7 nM.

B4: TR01H082-E22Hh/none-Hi-Kn010G3/L0201-k0 (antibody, human IgG1, kappa, L234A L235A, N297A)
heavy: QVQLVESGGGLVQPGRSLRLSCAASGFTFSNAWMHWVRQAPGKGLEWVAQIKDKSQNYATYYAESVKGRFTISRDDSKNSLYLQMNSLKTEDTAVYYCRYVHYAAGYGVDAWGQGTTVTVSSASTKGPSVFPLAPSSKSTSGGTAALGCLVKDYFPEPVTVSWNSGALTSGVHTFPAVLQSSGLYSLSSVVTVPSSSLGTQTYICNVNHKPSNTKVDKKVEPKSCDKTHTCPPCPAPEAAGGPSVFLFPPKPKDTLMISRTPEVTCVVVDVSHEDPEVKFNWYVDGVEVHNAKTKPREEQYASTYRVVSVLTVLHQDWLNGKEYKCKVSNKALPAPIEKTISKAKGQPREPQVYTLPPSRCELTKNQVSLSCAVKGFYPSDIAVEWESNGQPENNYKTTPPVLDSDGSFFLVSKLTVDKSRWQQGNVFSCSVMHEALHNHYTQKSLSLSPDYKDDDDK
chain: EPKSSDKTHTCPPCPAPELLGGPSVFLFPPKPKDTLMISRTPEVTCVVVDVSHEDPEVKFNWYVDGVEVHNAKTKPREEQYNSTYRVVSVLTVLHQDWLNGKEYKCKVSNKALPAPIEKTISKAKGQPREPQVCTLPPSRDELTKNQVSLWCLVKGFYPSDIAVEWESNGQPENNYKTTPPVLDSDGSFFLYSKLTVDKSRWQQGNVFSCSVMHEALHNRYTQKSLSLSP
light: DIVMTQSPLSLPVTPGEPASISCRSSQPPVHSNRNTYLHWYQQKPGQAPRLLIYKVSNRFSGVPDRFSGSGSGTDFTLKISRVEAEDVGVYYCGQGTQVPYTFGQGTKLEIKRTVAAPSVFIFPPSDEQLKSGTASVVCLLNNFYPREAKVQWKVDNALQSGNSQESVTEQDSKDSTYSLSSTLTLSKADYEKHKVYACEVTHQGLSSPVTKSFNRGEC
notes: single-arm
B4 registered a Kd of 44.9 nM. Compared with the last molecule, the Kd is about 1.6-fold lower.

B5: TR01H082-E22Hh/none-Hi-Kn010G3/L0011-k0 (antibody, human IgG1, kappa, L234A L235A, N297A)
heavy: QVQLVESGGGLVQPGRSLRLSCAASGFTFSNAWMHWVRQAPGKGLEWVAQIKDKSQNYATYYAESVKGRFTISRDDSKNSLYLQMNSLKTEDTAVYYCRYVHYAAGYGVDAWGQGTTVTVSSASTKGPSVFPLAPSSKSTSGGTAALGCLVKDYFPEPVTVSWNSGALTSGVHTFPAVLQSSGLYSLSSVVTVPSSSLGTQTYICNVNHKPSNTKVDKKVEPKSCDKTHTCPPCPAPEAAGGPSVFLFPPKPKDTLMISRTPEVTCVVVDVSHEDPEVKFNWYVDGVEVHNAKTKPREEQYASTYRVVSVLTVLHQDWLNGKEYKCKVSNKALPAPIEKTISKAKGQPREPQVYTLPPSRCELTKNQVSLSCAVKGFYPSDIAVEWESNGQPENNYKTTPPVLDSDGSFFLVSKLTVDKSRWQQGNVFSCSVMHEALHNHYTQKSLSLSPDYKDDDDK
chain: EPKSSDKTHTCPPCPAPELLGGPSVFLFPPKPKDTLMISRTPEVTCVVVDVSHEDPEVKFNWYVDGVEVHNAKTKPREEQYNSTYRVVSVLTVLHQDWLNGKEYKCKVSNKALPAPIEKTISKAKGQPREPQVCTLPPSRDELTKNQVSLWCLVKGFYPSDIAVEWESNGQPENNYKTTPPVLDSDGSFFLYSKLTVDKSRWQQGNVFSCSVMHEALHNRYTQKSLSLSP
light: DIVMTQSPLSLPVTPGEPASISCRSSQPLVHSNRNTYLHWYQQKPGQAPRLLIYKVSNRFSGVPDRFSGSGSGTDFTLKISRVEAEDVGVYYCGQGTQVPYTFGQGTKLEIKRTVAAPSVFIFPPSDEQLKSGTASVVCLLNNFYPREAKVQWKVDNALQSGNSQESVTEQDSKDSTYSLSSTLTLSKADYEKHKVYACEVTHQGLSSPVTKSFNRGEC
notes: single-arm
B5 came in with a Kd of 59.5 nM.

B6: TR01H081-E22Hh/none-Hi-Kn010G3/L0201-k0 (antibody, human IgG1, kappa, L234A L235A, N297A)
heavy: QVQLVESGGGLVQPGRSLRLSCAASGFTFSNAWMHWVRQAPGKGLEWVAQIKDKSQNYATYYAESVKGRFTISRADSKNSIYLQMNSLKTEDTAVYYCRYVHYAAGYGVDIWGQGTTVTVSSASTKGPSVFPLAPSSKSTSGGTAALGCLVKDYFPEPVTVSWNSGALTSGVHTFPAVLQSSGLYSLSSVVTVPSSSLGTQTYICNVNHKPSNTKVDKKVEPKSCDKTHTCPPCPAPEAAGGPSVFLFPPKPKDTLMISRTPEVTCVVVDVSHEDPEVKFNWYVDGVEVHNAKTKPREEQYASTYRVVSVLTVLHQDWLNGKEYKCKVSNKALPAPIEKTISKAKGQPREPQVYTLPPSRCELTKNQVSLSCAVKGFYPSDIAVEWESNGQPENNYKTTPPVLDSDGSFFLVSKLTVDKSRWQQGNVFSCSVMHEALHNHYTQKSLSLSPDYKDDDDK
chain: EPKSSDKTHTCPPCPAPELLGGPSVFLFPPKPKDTLMISRTPEVTCVVVDVSHEDPEVKFNWYVDGVEVHNAKTKPREEQYNSTYRVVSVLTVLHQDWLNGKEYKCKVSNKALPAPIEKTISKAKGQPREPQVCTLPPSRDELTKNQVSLWCLVKGFYPSDIAVEWESNGQPENNYKTTPPVLDSDGSFFLYSKLTVDKSRWQQGNVFSCSVMHEALHNRYTQKSLSLSP
light: DIVMTQSPLSLPVTPGEPASISCRSSQPPVHSNRNTYLHWYQQKPGQAPRLLIYKVSNRFSGVPDRFSGSGSGTDFTLKISRVEAEDVGVYYCGQGTQVPYTFGQGTKLEIKRTVAAPSVFIFPPSDEQLKSGTASVVCLLNNFYPREAKVQWKVDNALQSGNSQESVTEQDSKDSTYSLSSTLTLSKADYEKHKVYACEVTHQGLSSPVTKSFNRGEC
notes: single-arm
B6 yielded a Kd of 9.46 nM.

What is called Kd is the constant that tells how readily two partners part at equilibrium. A lower Kd goes with tighter binding.
